For 59 substances, iC3b Screen Ref Fold (fold vs CFI-HSA wild type), C4b Screen Ref Fold (fold vs CFI-HSA wild type) and iC3b Screen Ref Fold (fold of reference) results are on record in patent US20230038638A1, “COMPLEMENT FACTOR I-RELATED COMPOSITIONS AND METHODS” (published 2023).

The target of assay [1] is soluble human C3b (human) (UniProt P01024).
A further assay addresses T1, human C4b (human) (UniProt P0C0L5).
T1 sequence: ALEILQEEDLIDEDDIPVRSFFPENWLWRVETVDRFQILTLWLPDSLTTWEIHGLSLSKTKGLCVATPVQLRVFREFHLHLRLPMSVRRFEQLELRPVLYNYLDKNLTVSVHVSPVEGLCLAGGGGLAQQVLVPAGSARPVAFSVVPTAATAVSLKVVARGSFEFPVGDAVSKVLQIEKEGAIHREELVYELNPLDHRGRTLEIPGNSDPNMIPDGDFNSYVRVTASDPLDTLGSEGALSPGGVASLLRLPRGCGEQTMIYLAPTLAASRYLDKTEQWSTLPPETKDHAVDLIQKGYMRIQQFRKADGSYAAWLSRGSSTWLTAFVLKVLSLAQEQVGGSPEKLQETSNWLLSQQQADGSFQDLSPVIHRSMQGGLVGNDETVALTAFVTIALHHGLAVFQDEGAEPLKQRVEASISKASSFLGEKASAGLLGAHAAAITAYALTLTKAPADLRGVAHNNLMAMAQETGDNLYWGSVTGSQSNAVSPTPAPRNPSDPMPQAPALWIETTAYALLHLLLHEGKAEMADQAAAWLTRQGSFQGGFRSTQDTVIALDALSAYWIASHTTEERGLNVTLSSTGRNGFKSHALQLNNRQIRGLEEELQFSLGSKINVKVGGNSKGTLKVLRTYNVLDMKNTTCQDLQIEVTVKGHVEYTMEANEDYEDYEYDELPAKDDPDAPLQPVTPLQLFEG

In the case of “(HSA-GS)-V311-V565 - G(10) - K1-G310; C309S; C435S (enzyme)”, the iC3b Screen Ref Fold (fold vs CFI-HSA wild type) in assay [1] was 0.03. Moreover, the C4b Screen Ref Fold (fold vs CFI-HSA wild type) with human C4b (human) was 0.21.
The corresponding values for “(HSA-GS)-V311-V565 - G(13) - K1-G310 (enzyme)” are 0.03 and 0.34.
The corresponding values for “(HSA-GS)-V311-V565 - G(13) - K1-G310; C309S; C435S (enzyme)” are 0.03 and 0.06.
The matching figures for CFI-HSA A342G (enzyme): 1.23 and 0.91.
In the case of CFI-HSA A366G (enzyme), the iC3b Screen Ref Fold (fold vs CFI-HSA wild type) in assay [1] was determined as 1.46. Moreover, in the assay with human C4b (human), the C4b Screen Ref Fold (fold vs CFI-HSA wild type) amounted to 0.74.
The corresponding values for CFI-HSA A405G (enzyme) are 1.74 and 1.06.
The corresponding values for CFI-HSA A502G (enzyme) are 0.09 and 0.06.
Turning to “CFI-HSA D425R; Y408L; N531G; E457G; E461Q; R462K; F464Y; E530Y (enzyme)”, the iC3b Screen Ref Fold (fold vs CFI-HSA wild type) in assay [1] is 1.57. Also, the C4b Screen Ref Fold (fold vs CFI-HSA wild type) with human C4b (human) was determined as 4.98.
The corresponding values for CFI-HSA D459G (enzyme) are 1.93 and 1.07.
The corresponding values for CFI-HSA D501G (enzyme) are -0.04 and -0.01.
The corresponding values for CFI-HSA D549A (enzyme) are 0.66 and 1.04.
In the case of CFI-HSA D549F (enzyme), the iC3b Screen Ref Fold (fold vs CFI-HSA wild type) in assay [1] is 0.22. The C4b Screen Ref Fold (fold vs CFI-HSA wild type) in the assay with human C4b (human) stood at 0.05.
The corresponding values for CFI-HSA D549G (enzyme) are 0.86 and 0.75.
The corresponding values for CFI-HSA D549H (enzyme) are 0.73 and 0.92.
CFI-HSA D549K (enzyme): the iC3b Screen Ref Fold (fold vs CFI-HSA wild type) in assay [1] stood at 0.18. The C4b Screen Ref Fold (fold vs CFI-HSA wild type) with human C4b (human) amounted to 1.
The corresponding values for CFI-HSA D549L (enzyme) are 0.2 and 0.1.
The corresponding values for CFI-HSA D549M (enzyme) are 0.45 and 0.23.
The matching figures for CFI-HSA D549N (enzyme): 1.48 and 1.08.
For the substance CFI-HSA D549P (enzyme), the iC3b Screen Ref Fold (fold vs CFI-HSA wild type) in assay [1] came out at 0.53. For the same substance, the C4b Screen Ref Fold (fold vs CFI-HSA wild type) with human C4b (human) was 1.08.
The matching figures for CFI-HSA D549Q (enzyme): 0.84 and 1.1.
The matching figures for CFI-HSA D549R (enzyme): 0.27 and 0.52.
For CFI-HSA D549T (enzyme), the iC3b Screen Ref Fold (fold vs CFI-HSA wild type) in assay [1] worked out at 1.09. In addition, the C4b Screen Ref Fold (fold vs CFI-HSA wild type) with human C4b (human) is 1.05.
For the substance CFI-HSA D549V (enzyme), the iC3b Screen Ref Fold (fold vs CFI-HSA wild type) in assay [1] was found to be 0.46. The C4b Screen Ref Fold (fold vs CFI-HSA wild type) in the assay with human C4b (human) turned out to be 0.07.
The matching figures for CFI-HSA D549W (enzyme): 0.68 and 0.25.
The corresponding values for CFI-HSA D549Y (enzyme) are 0.42 and 0.08.
The matching figures for CFI-HSA E401G (enzyme): 2.1 and 0.82.
Consider CFI-HSA E457G; D425R; E530Y (enzyme), for which the iC3b Screen Ref Fold (fold vs CFI-HSA wild type) in assay [1] came out at 1.73. Further, in the assay with human C4b (human), the C4b Screen Ref Fold (fold vs CFI-HSA wild type) worked out at 4.29.
The corresponding values for “CFI-HSA E457G; E461Q; F464Y; N531G; GGSSGG (SEQ ID NO: 6); CR1 (ccp15-17) (from UniProt P17927) (enzyme)” are 0.13 and 4.44.
The matching figures for “CFI-HSA E457G; E461Q; N531G; GGSSGG (SEQ ID NO: 6); CR1 (ccp15-17) (from UniProt P17927) (enzyme)”: 0.12 and 4.82.
The matching figures for CFI-HSA E457G; E461Q; R557A (enzyme): 1.29 and 4.5.
On to CFI-HSA E457G; E461Q; R557K (enzyme), for which the iC3b Screen Ref Fold (fold vs CFI-HSA wild type) in assay [1] came to 1.81. Further, in the assay with human C4b (human), the C4b Screen Ref Fold (fold vs CFI-HSA wild type) turned out to be 4.28.
The matching figures for CFI-HSA E457G; E530Y (enzyme): 2.03 and 2.48.
For “CFI-HSA E457G; N531G; D425R; E530Y (enzyme)”, the iC3b Screen Ref Fold (fold vs CFI-HSA wild type) in assay [1] was 0.78. Further, the C4b Screen Ref Fold (fold vs CFI-HSA wild type) in the assay with human C4b (human) was 5.37.
The matching figures for “CFI-HSA E457G; N531G; E461Q; R462K; F464Y; E530Y (enzyme)”: 1.83 and 5.7.
Turning to “CFI-HSA E457G; N531G; E461Q; R462K; F464Y; E530Y; GGSSGG (SEQ ID NO: 6); CR1(ccp15-17) (from UniProt P17927) (enzyme)”, the iC3b Screen Ref Fold (fold vs CFI-HSA wild type) in assay [1] stood at 0.01. Besides, the C4b Screen Ref Fold (fold vs CFI-HSA wild type) with human C4b (human) was found to be 2.87.
The matching figures for “CFI-HSA E457G; N531G; E461Q; R462K; F464Y; GGSSGG (SEQ ID NO: 6); CR1 (ccp1-3) (from UniProt P17927) (enzyme)”: 0.14 and 0.46.
As for “CFI-HSA E457G; N531G; E461Q; R462K; F464Y; GGSSGG (SEQ ID NO: 6); CR1 (ccp15-17) (from UniProt P17927) (enzyme)”, the iC3b Screen Ref Fold (fold vs CFI-HSA wild type) in assay [1] is 0.1. For the same substance, the C4b Screen Ref Fold (fold vs CFI-HSA wild type) in the assay with human C4b (human) is 4.36.
The matching figures for CFI-HSA E457G; N531G; E530Y (enzyme): 1.67 and 4.22.
The corresponding values for CFI-HSA F399G (enzyme) are 0.65 and 0.05.
As for CFI-HSA F537G (enzyme), in assay [1], the iC3b Screen Ref Fold (fold vs CFI-HSA wild type) is 0.37. For the same substance, in the assay with human C4b (human), the C4b Screen Ref Fold (fold vs CFI-HSA wild type) stood at 0.03.
The matching figures for CFI-HSA H362G (enzyme): -0.02 and 0.03.
As for CFI-HSA H370G (enzyme), in assay [1], the iC3b Screen Ref Fold (fold vs CFI-HSA wild type) was 0.52. Further, the C4b Screen Ref Fold (fold vs CFI-HSA wild type) in the assay with human C4b (human) stood at 0.13.
For the substance CFI-HSA K368E (enzyme), in assay [1], the iC3b Screen Ref Fold (fold vs CFI-HSA wild type) is 0.2. Also, the C4b Screen Ref Fold (fold vs CFI-HSA wild type) with human C4b (human) was 0.06.
The matching figures for CFI-HSA K368G (enzyme): 0.16 and 0.24.
For the substance CFI-HSA K423A (enzyme), the iC3b Screen Ref Fold (fold vs CFI-HSA wild type) in assay [1] amounted to 0.23. Also, the C4b Screen Ref Fold (fold vs CFI-HSA wild type) with human C4b (human) was 0.11.
The corresponding values for CFI-HSA K423D (enzyme) are 0.33 and 0.31.
The corresponding values for CFI-HSA K423E (enzyme) are 0.61 and 0.32.
The corresponding values for CFI-HSA K423G (enzyme) are 0.69 and 0.15.
In the case of “CFI-HSA variant I317D-R318D-R319D-K320D-R321K (enzyme)”, the iC3b Screen Ref Fold (fold vs CFI-HSA wild type) in assay [1] came to 0.03.
For CFI-HSA variant K504Q (enzyme), the iC3b Screen Ref Fold (fold vs CFI-HSA wild type) in assay [1] came to 0.64.
On the same count and under the same terms, the same measure for “CFI-HSA variant N446Q; N476Q; N518Q (enzyme)”: 0.06.
On to “CFI-HSA variant T346R; K504E; E530R (enzyme)”, for which the iC3b Screen Ref Fold (fold of reference) in assay [1] stood at 0.51.
Take CFI-HSA variant Y408D (enzyme): in assay [1], the iC3b Screen Ref Fold (fold vs CFI-HSA wild type) is 0.02.
As for CFI-HSA variant Y408E (enzyme), in assay [1], the iC3b Screen Ref Fold (fold of reference) was 0.23.
As to CFI-HSA variant Y408K (enzyme), the iC3b Screen Ref Fold (fold vs CFI-HSA wild type) in assay [1] is 0.65.
Same read-out and setting: then CFI-HSA variant Y408T (enzyme), with 0.04.
As for CFI-HSA variant Y408V (enzyme), in assay [1], the iC3b Screen Ref Fold (fold of reference) is 0.
The same measure, in the same setting: then CFI-HSA variant Y408W (enzyme), with 0.82.
CFI-HSA variant Y4081 (enzyme): the iC3b Screen Ref Fold (fold vs CFI-HSA wild type) in assay [1] stood at 0.03.
